Data taken from publication PMC11512355.

Biological target: recombinant porcine astrovirus 4 (PoAstV4) capsid spike protein (porcine astrovirus 4)
Test: SEC; Superdex 200 16/600 column in TBS pH 8.0 (10 mM Tris-HCl, 150 mM NaCl), compared with BioRad gel filtration standards

## recombinant porcine astrovirus 4 (PoAstV4) capsid spike protein (domain or fragment)
  stoichiometry N: 2
